From the supplement of paper PMC9112550, “Optimization of the antimicrobial peptide Bac7 by deep mutational scanning” (BMC Biology, 2022)

Test system: Escherichia coli TOP10
Test: shrunken log2 fold change of peptide-encoding DNA abundance (4.5 h post-induction vs induction); higher = less antimicrobial activity (less host growth inhibition)
Details: time post-induction: 4.5 h; library: site-saturation at positions 5, 18, 19, 20
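Also: peptides expressed intracellularly from a pBAD plasmid library in pooled LB shake-flask culture, induced with 0.3% L-arabinose, DNA abundance read by NGS, three biological replicates, DESeq2 with apeglm shrinkage.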

| Sequence | shrunken log2 fold change |
| --- | --- |
| RRIRSRPPRLPRPRPRPYTMPRP | -0.19 |
| RRIRCRPPRLPRPRPRPVWWPRP | 0.261 |
| RRIRHRPPRLPRPRPRPTPFPRP | 0.177 |
| RRIRLRPPRLPRPRPRPEPLPRP | 0.0706 |
| RRIRLRPPRLPRPRPRPSCWPRP | 0.0662 |
| RRIRTRPPRLPRPRPRPWIQPRP | -0.194 |
| RRIRHRPPRLPRPRPRPETYPRP | -0.00431 |
| RRIRPRPPRLPRPRPRPSTIPRP | -0.552 |
| RRIRRRPPRLPRPRPRPTQDPRP | 1.87 |
| RRIRDRPPRLPRPRPRPYCVPRP | 0.00706 |
| RRIRHRPPRLPRPRPRPMRVPRP | -0.0146 |
| RRIRRRPPRLPRPRPRPSERPRP | -0.0993 |
| RRIRHRPPRLPRPRPRPKDMPRP | -0.282 |
| RRIRTRPPRLPRPRPRPHESPRP | -0.0124 |
| RRIRSRPPRLPRPRPRPQTFPRP | -0.136 |
| RRIRERPPRLPRPRPRPNCAPRP | 0.172 |
| RRIRHRPPRLPRPRPRPNVSPRP | -0.0959 |
| RRIRKRPPRLPRPRPRPDMHPRP | 0.051 |
| RRIRNRPPRLPRPRPRPTGHPRP | 0.0742 |
| RRIRARPPRLPRPRPRPQPVPRP | 0.292 |
| RRIRLRPPRLPRPRPRPFQWPRP | -0.0972 |
| RRIRHRPPRLPRPRPRPAWNPRP | 0.287 |

| Sequence | shrunken log2 fold change |
| --- | --- |
| RRIRRRPPRLPRPRPRPDAFPRP | 0.737 |
| RRIRQRPPRLPRPRPRPMAVPRP | 0.00724 |
| RRIRSRPPRLPRPRPRPKDQPRP | 0.232 |
| RRIRDRPPRLPRPRPRPVTDPRP | 0.0222 |
| RRIRSRPPRLPRPRPRPHNNPRP | -0.751 |
| RRIRYRPPRLPRPRPRPAGAPRP | 0.421 |
| RRIRDRPPRLPRPRPRPQSEPRP | 0.0514 |
| RRIRHRPPRLPRPRPRPKNQPRP | -0.16 |
| RRIRCRPPRLPRPRPRPTAQPRP | 0.301 |
| RRIRCRPPRLPRPRPRPMDFPRP | -0.151 |
| RRIRQRPPRLPRPRPRPHVSPRP | -0.108 |
| RRIRRRPPRLPRPRPRPFRHPRP | -0.212 |
| RRIRQRPPRLPRPRPRPEYKPRP | -0.124 |
| RRIRGRPPRLPRPRPRPFPVPRP | 0.291 |
| RRIRMRPPRLPRPRPRPEHYPRP | -0.0905 |
| RRIRRRPPRLPRPRPRPEMMPRP | 0.345 |
| RRIRFRPPRLPRPRPRPELKPRP | -0.0455 |
| RRIRMRPPRLPRPRPRPMLQPRP | 0.196 |
| RRIRTRPPRLPRPRPRPQHHPRP | -0.453 |
| RRIRGRPPRLPRPRPRPRYTPRP | 0.178 |
| RRIRKRPPRLPRPRPRPFVVPRP | -0.00719 |
| RRIRERPPRLPRPRPRPYAHPRP | -0.0128 |

| Sequence | shrunken log2 fold change |
| --- | --- |
| RRIRERPPRLPRPRPRPPWQPRP | 0.0988 |
| RRIRHRPPRLPRPRPRPKYHPRP | -0.773 |
| RRIRHRPPRLPRPRPRPCEAPRP | -0.136 |
| RRIRYRPPRLPRPRPRPQNEPRP | -0.483 |
| RRIRMRPPRLPRPRPRPGLRPRP | 1.15 |
| RRIRARPPRLPRPRPRPCGRPRP | 0.526 |
| RRIRHRPPRLPRPRPRPLERPRP | -0.0962 |
| RRIRRRPPRLPRPRPRPSMVPRP | -0.298 |
| RRIRVRPPRLPRPRPRPTYQPRP | -0.388 |
| RRIRVRPPRLPRPRPRPMHAPRP | -0.00559 |
| RRIRLRPPRLPRPRPRPEQCPRP | -0.0243 |
| RRIRTRPPRLPRPRPRPQLFPRP | -0.112 |
| RRIRTRPPRLPRPRPRPKRWPRP | 0.723 |
| RRIRCRPPRLPRPRPRPCYVPRP | -1.08 |
| RRIRLRPPRLPRPRPRPCNFPRP | -0.0369 |
| RRIRKRPPRLPRPRPRPVHMPRP | -0.0183 |
| RRIRVRPPRLPRPRPRPTVLPRP | -0.0891 |
| RRIRQRPPRLPRPRPRPTIGPRP | 0.0815 |
| RRIRYRPPRLPRPRPRPHIMPRP | -0.955 |
| RRIRMRPPRLPRPRPRPLLYPRP | 0.0402 |
| RRIRERPPRLPRPRPRPDFFPRP | -0.279 |
| RRIRYRPPRLPRPRPRPHDVPRP | -0.379 |

| Sequence | shrunken log2 fold change |
| --- | --- |
| RRIRFRPPRLPRPRPRPKSTPRP | -0.3 |
| RRIRQRPPRLPRPRPRPHFLPRP | -0.218 |
| RRIRARPPRLPRPRPRPQKFPRP | -0.509 |
| RRIRMRPPRLPRPRPRPCHHPRP | -0.353 |
| RRIRDRPPRLPRPRPRPVQWPRP | 0.0426 |
| RRIRNRPPRLPRPRPRPKSYPRP | -0.0423 |
| RRIRMRPPRLPRPRPRPAKKPRP | 0.209 |
| RRIRLRPPRLPRPRPRPMMKPRP | -0.0811 |
| RRIRWRPPRLPRPRPRPYYCPRP | -0.00583 |
| RRIRMRPPRLPRPRPRPNCGPRP | -0.216 |
| RRIRPRPPRLPRPRPRPNKDPRP | -0.534 |
| RRIRPRPPRLPRPRPRPCLRPRP | -0.183 |
| RRIRRRPPRLPRPRPRPLELPRP | 0.199 |
| RRIRMRPPRLPRPRPRPCLSPRP | -0.0592 |
| RRIRTRPPRLPRPRPRPPTKPRP | 0.674 |
| RRIRKRPPRLPRPRPRPLNTPRP | 0.143 |
| RRIRVRPPRLPRPRPRPPFQPRP | 0.164 |
| RRIRRRPPRLPRPRPRPGCPPRP | 0.414 |
| RRIRIRPPRLPRPRPRPEWWPRP | -0.0654 |
| RRIRGRPPRLPRPRPRPKDRPRP | 0.89 |
| RRIRKRPPRLPRPRPRPGKMPRP | -0.0991 |
| RRIRRRPPRLPRPRPRPTFRPRP | 0.0132 |

| Sequence | shrunken log2 fold change |
| --- | --- |
| RRIRRRPPRLPRPRPRPYKWPRP | -0.138 |
| RRIRQRPPRLPRPRPRPPRIPRP | 0.0686 |
| RRIRLRPPRLPRPRPRPWKAPRP | -0.0344 |
| RRIRNRPPRLPRPRPRPCVKPRP | -0.13 |
| RRIRPRPPRLPRPRPRPQRFPRP | 0.0622 |
| RRIRVRPPRLPRPRPRPWHEPRP | -0.127 |
| RRIRKRPPRLPRPRPRPLEEPRP | 1.76 |
| RRIRARPPRLPRPRPRPSLRPRP | 0.109 |
| RRIRPRPPRLPRPRPRPNHTPRP | -0.21 |
| RRIRNRPPRLPRPRPRPLLEPRP | 0.0286 |
| RRIRFRPPRLPRPRPRPTIMPRP | -0.375 |
| RRIRGRPPRLPRPRPRPHFMPRP | 0.152 |
| RRIRQRPPRLPRPRPRPIIIPRP | -0.197 |
| RRIRIRPPRLPRPRPRPQRPPRP | -0.465 |
| RRIRERPPRLPRPRPRPNAGPRP | 0.0608 |
| RRIRCRPPRLPRPRPRPWIRPRP | -0.374 |
| RRIRGRPPRLPRPRPRPWDVPRP | -0.00788 |
| RRIRLRPPRLPRPRPRPPTKPRP | 0.288 |
| RRIRTRPPRLPRPRPRPVGLPRP | -0.00734 |
| RRIRNRPPRLPRPRPRPSTHPRP | -0.274 |
| RRIRYRPPRLPRPRPRPMMNPRP | -0.367 |
